Measurements reported in paper PMC3166722 (2011).

Assays:
Assay in all cases: resonant mirror detection (IAsys)
[1] = target: CaM (Homo sapiens, UniProt P0DP23)
[2] = target: T1, GPCcyt cytoplasmic domain (Homo sapiens, UniProt P04921)
T1 chain: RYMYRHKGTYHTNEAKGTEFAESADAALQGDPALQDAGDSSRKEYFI

[3] = target: T2, band 3cyt cytoplasmic domain (Homo sapiens, UniProt P02730)
T2 chain: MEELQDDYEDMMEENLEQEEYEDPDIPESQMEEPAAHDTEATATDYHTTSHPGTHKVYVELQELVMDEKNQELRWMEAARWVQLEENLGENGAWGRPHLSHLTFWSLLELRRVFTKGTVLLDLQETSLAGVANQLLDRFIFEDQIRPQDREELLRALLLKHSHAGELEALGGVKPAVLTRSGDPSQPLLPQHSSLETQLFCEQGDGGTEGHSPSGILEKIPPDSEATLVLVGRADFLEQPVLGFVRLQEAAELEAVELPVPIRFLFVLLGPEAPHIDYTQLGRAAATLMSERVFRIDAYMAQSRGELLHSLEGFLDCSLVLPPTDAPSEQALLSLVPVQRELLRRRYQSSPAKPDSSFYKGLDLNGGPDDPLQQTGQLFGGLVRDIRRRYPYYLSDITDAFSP

B1: 4.1R135 (protein)
chain: MTTEKSLVTEAENSQHQQKEEGEEAINSGQQEPQQEESCQTAAEGDNWCEQKLKASNGDTPTHEDLTKNKERTSESRGLSRLFSSFLKRPKSQVSEEEGKEVESDKEKGEGGQKEIEFGTSLDEEIILKAPIAAPEPELKTDPSLDLHSLSSAETQPAQEELREDPDFEIKEGEGLEECSKIEVKEESPQSKAETELKASQKPIRKHRNMHCKVSLLDDTVYECVVEKHAKGQDLLKRVCEHLNLLEEDYFGLAIWDNATSKTWLDSAKEIKKQVRGVPWNFTFNVKFYPPDPAQLTEDITRYYLCLQLRQDIVAGRLPCSFATLALLGSYTIQSELGDYDPELHGVDYVSDFKLAPNQTKELEEKVMELHKSYRSMTPAQADLEFLENAKKLSMYGVDLHKAKDLEGVDIILGVCSSGLLVYKDKLRINRFPWPKVLKISYKRSSFFIKIRPGEQEQYESTIGFKLPSYRAAKKLWKVCVEHHTFFRLTSTDTIPKSKFLALGSKFRYSGRTQAQTRQASALIDRPAPHFERTASKRASRSLDGAAAVDSADRSPRPTSAPAITQGQVAEGGVLDASAKKTVVPKAQKETVKAEVKKEDEPPEQAEPEPTEAWKVEKTHIEVTVPTSNGDQTQKLAEKTEDLIRMRKKKRERLDGENIYIRHSNLMLEDLDKSQEEIKKHHASISELKKNFMESVPEPRPSEWDKRLSTHSPFRTLNINGQIPTGEGPPLVKTQTVTISDNANAVKSEIPTKDVPIVHTETKTITYEAAQTDDNSGDLDPGVLLTAQTITSETPSSTTTTQITKTVKGGISETRIEKRIVITGDADIDHDQVLVQAIKEAKEQHPDMSVTKVVVHQETEIADE
modifications: EGTA (no Ca2+)
B1 showed a Kd [1] of 11700 nM.

B2: 4.1R135 (protein)
chain: MTTEKSLVTEAENSQHQQKEEGEEAINSGQQEPQQEESCQTAAEGDNWCEQKLKASNGDTPTHEDLTKNKERTSESRGLSRLFSSFLKRPKSQVSEEEGKEVESDKEKGEGGQKEIEFGTSLDEEIILKAPIAAPEPELKTDPSLDLHSLSSAETQPAQEELREDPDFEIKEGEGLEECSKIEVKEESPQSKAETELKASQKPIRKHRNMHCKVSLLDDTVYECVVEKHAKGQDLLKRVCEHLNLLEEDYFGLAIWDNATSKTWLDSAKEIKKQVRGVPWNFTFNVKFYPPDPAQLTEDITRYYLCLQLRQDIVAGRLPCSFATLALLGSYTIQSELGDYDPELHGVDYVSDFKLAPNQTKELEEKVMELHKSYRSMTPAQADLEFLENAKKLSMYGVDLHKAKDLEGVDIILGVCSSGLLVYKDKLRINRFPWPKVLKISYKRSSFFIKIRPGEQEQYESTIGFKLPSYRAAKKLWKVCVEHHTFFRLTSTDTIPKSKFLALGSKFRYSGRTQAQTRQASALIDRPAPHFERTASKRASRSLDGAAAVDSADRSPRPTSAPAITQGQVAEGGVLDASAKKTVVPKAQKETVKAEVKKEDEPPEQAEPEPTEAWKVEKTHIEVTVPTSNGDQTQKLAEKTEDLIRMRKKKRERLDGENIYIRHSNLMLEDLDKSQEEIKKHHASISELKKNFMESVPEPRPSEWDKRLSTHSPFRTLNINGQIPTGEGPPLVKTQTVTISDNANAVKSEIPTKDVPIVHTETKTITYEAAQTDDNSGDLDPGVLLTAQTITSETPSSTTTTQITKTVKGGISETRIEKRIVITGDADIDHDQVLVQAIKEAKEQHPDMSVTKVVVHQETEIADE
modifications: Ca2+
Binder B2 has a Kd [1] of 78 nM.

B3: 4.1R135 (protein)
chain: MTTEKSLVTEAENSQHQQKEEGEEAINSGQQEPQQEESCQTAAEGDNWCEQKLKASNGDTPTHEDLTKNKERTSESRGLSRLFSSFLKRPKSQVSEEEGKEVESDKEKGEGGQKEIEFGTSLDEEIILKAPIAAPEPELKTDPSLDLHSLSSAETQPAQEELREDPDFEIKEGEGLEECSKIEVKEESPQSKAETELKASQKPIRKHRNMHCKVSLLDDTVYECVVEKHAKGQDLLKRVCEHLNLLEEDYFGLAIWDNATSKTWLDSAKEIKKQVRGVPWNFTFNVKFYPPDPAQLTEDITRYYLCLQLRQDIVAGRLPCSFATLALLGSYTIQSELGDYDPELHGVDYVSDFKLAPNQTKELEEKVMELHKSYRSMTPAQADLEFLENAKKLSMYGVDLHKAKDLEGVDIILGVCSSGLLVYKDKLRINRFPWPKVLKISYKRSSFFIKIRPGEQEQYESTIGFKLPSYRAAKKLWKVCVEHHTFFRLTSTDTIPKSKFLALGSKFRYSGRTQAQTRQASALIDRPAPHFERTASKRASRSLDGAAAVDSADRSPRPTSAPAITQGQVAEGGVLDASAKKTVVPKAQKETVKAEVKKEDEPPEQAEPEPTEAWKVEKTHIEVTVPTSNGDQTQKLAEKTEDLIRMRKKKRERLDGENIYIRHSNLMLEDLDKSQEEIKKHHASISELKKNFMESVPEPRPSEWDKRLSTHSPFRTLNINGQIPTGEGPPLVKTQTVTISDNANAVKSEIPTKDVPIVHTETKTITYEAAQTDDNSGDLDPGVLLTAQTITSETPSSTTTTQITKTVKGGISETRIEKRIVITGDADIDHDQVLVQAIKEAKEQHPDMSVTKVVVHQETEIADE
For B3, the Kd [2] was 1330 nM and the Kd [3] was 23 nM.
